Experiments:
[1] = immunohistofluorescence imaging after intranasal injection of FITC-labeled OVA; settings: mice
[2] = mucous adhesive property by SPECT/CT imaging after intranasal injection; settings: 123I-labeled, mice, imaging at 1, 6 and 12 hours
Experimental: The selected eluate fraction was diluted with PBS to a final concentration of 500 μg/ml in view of ^123I-activity to be injected per mouse.
The amount of sample injected for SPECT/CT imaging was such that the sample would have a ^123I-activity of about 200 μCi or more in 40 μl upon nasal administration. 40 μl of a sample was injected into each mouse using a tip for nasal administration, and at 1, 6 and 12 hours after injection, SPECT/CT imaging was started. SPECT/CT imaging was performed for about 1 hour, in which CT imaging was performed for 10 minutes, followed by SPECT imaging for 50 minutes. Because the amount of sample injected intranasally is limited to 40 μl or less, the concentration of the sample is necessarily required to ensure ^123I-activity for imaging. ^123I-labeled nanomicelles were centrifuged, filtered (Ultracel, 10 kDa) and concentrated, thereby ensuring activity required for imaging per 40 μl. The sample was injected into both nasal cavities alternately at intervals of a few minutes depending on the size and condition of the mouse.

B1: OVA alone: OVA (ovalbumin, Sigma-Aldrich), model antigen injected alone (protein, UniProt P01012 2-386, looked up)
Ovalbumin: GSIGAASMEFCFDVFKELKVHHANENIFYCPIAIMSALAMVYLGAKDSTRTQINKVVRFDKLPGFGDSIEAQCGTSVNVHSSLRDILNQITKPNDVYSFSLASRLYAEERYPILPEYLQCVKELYRGGLEPINFQTAADQARELINSWVESQTNGIIRNVLQPSSVDSQTAMVLVNAIVFKGLWEKAFKDEDTQAMPFRVTEQESKPVQMMYQIGLFRVASMASEKMKILELPFASGTMSMLVLLPDEVSGLEQLESIINFEKLTEWTSSNVMEERKIKVYLPRMKMEEKYNLTSVLMAMGITDVFSSSANLSGISSAESLKISQAVHAAHAEINEAGREVVGSAEAGVDAASVSEEFRADHPFLFCIKHIATNAVLFFGRCVSP
[1]
  time OVA remained in the nasal cavity (immunohistofluorescence): ~1 h
[2]
  time OVA remained in the nasal cavity (SPECT/CT): ≤ 6 h

From US20160193348A1, “MUCOUS LAYER-ADHESIVE POLY-r-[sequence] ACID NA[…] DRUG [sequence] SYSTEM USING SAME” (priority 2013, published 2016)
